Results from patent US20080014599A1 (published 2008).
One block for each binder: values may come before it.

Legend:
TSC2 [1] = molecular target: T1, TSC2 (human, UniProt P49815 1-1807, limits assumed); experiment: co-IP with anti-FLAG from 293T extracts (FIG. 34)
T1 construct: Untagged TSC2 in 293T cell extracts, endogenous or from a transfected TSC2 cDNA; Some extracts of the pull-downs may hold HA-TSC2; also called tuberin; endogenous TSC2
Description: Description: 293T cells were transiently transfected with either empty plasmid or with plasmid containing FLAG-hRTP801 or FLAG-hRTP801-L (REDD2) cDNAs. 48 hrs. post-transfection, cobalt chloride (150 uM) was added (or omitted) for another 24 hrs. Cytosolic extracts prepared and IP was done using anti-FLAG antibodies. Alternatively, 293T cells were transiently transfected with plasmid containing FLAG-hRTP801 cDNA and plasmid containing TSC1 or TSC2 cDNAs or both. 48 hrs. post transfection, cobalt chloride (150 uM) was added for another 24 hrs. Cytosolic extracts prepared and IP was done using anti-TSC1, anti-TSC2 or normal rabbit IgG (NRIgG) antibodies. Alternatively, 293T cells were transiently transfected with either empty plasmid,plasmid containing FLAG-hRTP801 cDNA and plasmids containing either TSC1 and/or TSC2 cDNAs. 48 hrs. post transfection, cobalt chloride (150 uM) was added for another 24 hrs. Cytosolic extracts prepared and IP was done using anti-FLAG antibodies.

TSC2 [2] = molecular target: T1, TSC2; experiment: in vitro pull-down from extract with 6× His baits (FIG. 13)
[3] = molecular target: T2, HA-SV5-full length hRTP801 (human, UniProt Q9NX09 1-232); experiment: co-IP with M2 anti-FLAG resin from 293T HEK extracts, immunoblot (FIG. 21)
T2 construct: Full length, expressed in transfected 293T HEK cells; also called HA-SV5-hRTP801; HA-full length hRTP801; not shown: HA and SV5 tags
T2 sequence: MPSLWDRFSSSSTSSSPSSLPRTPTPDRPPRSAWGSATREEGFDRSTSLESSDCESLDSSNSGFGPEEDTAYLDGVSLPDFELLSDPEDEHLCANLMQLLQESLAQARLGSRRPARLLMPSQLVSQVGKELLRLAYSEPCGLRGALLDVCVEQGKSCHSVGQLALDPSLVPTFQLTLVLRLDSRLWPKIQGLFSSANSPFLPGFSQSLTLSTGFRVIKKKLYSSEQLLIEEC
Description: 293T HEK cells were co-transfected with a plasmid containing cDNA of HA-SV5-full length hRTP801 (“Prey”) as well as plasmid containing cDNA of one of the following: FLAG-full length hRTP801, FLAG-(C) hRTP801, FLAG-(N-C1) hRTP801, FLAG-(N-C1) hRTP801, FLAG-(N-C2)hRTP801 and FLAG-(C3) hRTP801. Forty-eight hours after transfection, cells were treated with 150 uM cobalt chloride for 18 hrs to mimick hypoxic stress conditions. The next day, cytosolic extracts were made by mechanic lysis under hypotonic conditions. FLAG-tagged bait proteins were immunoprecipitated with M2 anti-FLAG resin (Sigma). Following extensive washing, immunoprecipitated material was analyzed by immunblotting with either anti-hRTP801 polyclonal antibodies (proprietary) or with anti-SV5 polyclonal antibodies (AbCam).

HA-tagged TSC2 (HA-TSC2) = molecular target: T3, HA-tagged TSC2 (HA-TSC2) (human, UniProt P49815 1-1807); experiment: co-IP with anti-FLAG from transfected 293T post-nuclear supernatant (FIG. 25)
T3 construct: Expressed in transfected 293T cells; also called full length HA-tagged TSC2; not shown: HA tag
T3 sequence (P49815 other isoform, or with tags, fused parts or gaps limits assumed): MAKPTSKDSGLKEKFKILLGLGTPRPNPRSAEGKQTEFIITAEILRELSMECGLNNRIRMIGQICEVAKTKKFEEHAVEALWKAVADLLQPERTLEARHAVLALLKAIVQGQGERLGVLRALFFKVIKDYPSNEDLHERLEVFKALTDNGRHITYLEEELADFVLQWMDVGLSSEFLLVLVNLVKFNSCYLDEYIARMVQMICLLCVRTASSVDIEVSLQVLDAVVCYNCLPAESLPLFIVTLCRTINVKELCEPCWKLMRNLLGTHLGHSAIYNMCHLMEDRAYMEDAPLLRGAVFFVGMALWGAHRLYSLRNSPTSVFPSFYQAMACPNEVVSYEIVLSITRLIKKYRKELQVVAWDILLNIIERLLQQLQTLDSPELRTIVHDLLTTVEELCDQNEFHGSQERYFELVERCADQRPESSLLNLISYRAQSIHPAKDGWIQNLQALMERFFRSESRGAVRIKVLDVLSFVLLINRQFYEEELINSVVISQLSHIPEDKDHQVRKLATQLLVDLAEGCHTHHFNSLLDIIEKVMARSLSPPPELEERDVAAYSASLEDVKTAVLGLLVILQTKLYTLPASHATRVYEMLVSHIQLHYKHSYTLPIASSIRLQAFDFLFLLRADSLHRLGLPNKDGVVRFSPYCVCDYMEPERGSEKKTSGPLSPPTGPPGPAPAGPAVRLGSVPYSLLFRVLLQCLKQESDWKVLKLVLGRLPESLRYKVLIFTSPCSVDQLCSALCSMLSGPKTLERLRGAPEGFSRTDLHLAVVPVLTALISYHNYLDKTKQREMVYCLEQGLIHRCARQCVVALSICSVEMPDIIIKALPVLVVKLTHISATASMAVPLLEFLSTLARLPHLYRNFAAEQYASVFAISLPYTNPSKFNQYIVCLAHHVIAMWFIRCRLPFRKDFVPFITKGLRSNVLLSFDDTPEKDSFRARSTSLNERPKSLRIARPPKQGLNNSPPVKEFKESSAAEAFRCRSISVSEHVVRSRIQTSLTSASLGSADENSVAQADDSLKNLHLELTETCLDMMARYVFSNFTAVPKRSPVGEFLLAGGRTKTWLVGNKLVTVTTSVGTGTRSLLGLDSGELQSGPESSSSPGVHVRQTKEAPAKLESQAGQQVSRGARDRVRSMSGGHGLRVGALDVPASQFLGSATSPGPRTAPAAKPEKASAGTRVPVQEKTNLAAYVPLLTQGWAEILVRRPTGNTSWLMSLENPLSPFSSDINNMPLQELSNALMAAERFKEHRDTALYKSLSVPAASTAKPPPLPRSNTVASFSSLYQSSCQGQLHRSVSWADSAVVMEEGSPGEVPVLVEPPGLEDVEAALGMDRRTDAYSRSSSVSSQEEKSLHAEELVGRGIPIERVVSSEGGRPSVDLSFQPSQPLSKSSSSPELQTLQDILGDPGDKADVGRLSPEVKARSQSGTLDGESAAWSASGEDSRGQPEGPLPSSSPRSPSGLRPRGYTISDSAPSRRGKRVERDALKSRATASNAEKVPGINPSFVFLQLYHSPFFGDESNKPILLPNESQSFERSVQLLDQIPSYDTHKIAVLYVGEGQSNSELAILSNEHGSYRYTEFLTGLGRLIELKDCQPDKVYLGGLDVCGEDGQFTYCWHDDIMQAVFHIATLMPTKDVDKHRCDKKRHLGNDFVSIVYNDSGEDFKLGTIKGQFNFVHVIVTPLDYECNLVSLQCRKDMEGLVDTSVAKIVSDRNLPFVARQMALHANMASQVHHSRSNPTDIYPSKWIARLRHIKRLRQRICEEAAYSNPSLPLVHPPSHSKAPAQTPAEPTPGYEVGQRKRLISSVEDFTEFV
Description: TSC2 region that binds hRTP801 (FIG. 25). Human TSC2 HA-tagged “N” and “C” fragments (FIG. 25, upper panel) as well as full length HA-tagged TSC2 were transfected into 293T cells along with FLAG-hRTP801 or with empty vector. Forty-eight hours after transfection, the cells were treated with CoCl₂ for overnight. Cells were harvested and post-nuclear supernatant was prepared and used for IP with anti-FLAG antibodies. […] Similar results are achieved with RTP801L

[4] = molecular target: T4, HA-tagged TSC2 “N” fragment (a.a. 2-935) (human, UniProt P49815 2-935); experiment: co-IP with anti-FLAG, anti-HA blot (FIG. 17)
T4 construct: Printed as a.a; also called HA-“N” fragment of TSC2; not shown: HA tag
T4 sequence (P49815 other isoform, or with tags, fused parts or gaps): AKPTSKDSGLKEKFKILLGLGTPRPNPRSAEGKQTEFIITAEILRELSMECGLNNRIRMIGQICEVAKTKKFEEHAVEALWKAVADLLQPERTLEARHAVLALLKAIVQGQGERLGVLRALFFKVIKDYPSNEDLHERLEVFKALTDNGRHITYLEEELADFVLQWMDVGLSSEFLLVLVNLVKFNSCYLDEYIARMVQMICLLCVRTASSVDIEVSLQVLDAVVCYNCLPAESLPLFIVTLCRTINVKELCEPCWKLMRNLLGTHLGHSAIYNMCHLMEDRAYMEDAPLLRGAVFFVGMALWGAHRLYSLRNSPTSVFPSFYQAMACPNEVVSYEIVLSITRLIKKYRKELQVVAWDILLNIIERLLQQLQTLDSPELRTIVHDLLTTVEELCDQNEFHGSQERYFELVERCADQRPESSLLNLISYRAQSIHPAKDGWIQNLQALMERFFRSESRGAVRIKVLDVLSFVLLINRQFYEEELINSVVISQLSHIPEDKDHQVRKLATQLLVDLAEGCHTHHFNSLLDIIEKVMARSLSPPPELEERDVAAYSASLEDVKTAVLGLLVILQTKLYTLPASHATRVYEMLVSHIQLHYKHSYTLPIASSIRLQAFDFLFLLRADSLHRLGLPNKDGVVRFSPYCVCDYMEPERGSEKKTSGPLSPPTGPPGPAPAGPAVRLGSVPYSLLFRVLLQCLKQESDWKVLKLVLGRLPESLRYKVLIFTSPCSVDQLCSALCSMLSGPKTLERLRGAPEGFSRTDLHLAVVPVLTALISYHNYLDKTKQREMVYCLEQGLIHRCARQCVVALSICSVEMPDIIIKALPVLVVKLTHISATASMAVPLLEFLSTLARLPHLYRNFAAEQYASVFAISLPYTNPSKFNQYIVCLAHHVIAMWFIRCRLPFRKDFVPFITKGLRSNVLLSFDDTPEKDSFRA
Description: Cytosolic extracts were prepared and IP was done using anti-FLAG antibodies. Analysis of the immnocomplexes was done with anti-HA.

T1 sequence (P49815 other isoform, or with tags, fused parts or gaps limits assumed): as the sequence (P49815 other isoform, or with tags, fused parts or gaps limits assumed) above

B1: FLAG-hRTP801-L (REDD2) (other)
chain: MVATGSLSSKNPASISELLDCGYHPESLLSDFDYWDYVVPEPNLNEVIFEESTCQNLVKMLENCLSKSKQTKLGCSKVLVPEKLTQRIAQDVLRLSSTEPCGLRGCVMHVNLEIENVCKKLDRIVCDSSVVPTFELTLVFKQENCSWTSFRDFFFSRGRFSSGFRRTLILSSGFRLVKKKLYSLIGTTVIEGS
notes: Expressed in transfected 293T cells; also called FLAG-RTP801L; not shown: FLAG tag
- binding result (TSC2 [1]): binds

B3: FLAG-(N-C2)hRTP801 (other)
chain: MPSLWDRFSSSSTSSSPSSLPRTPTPDRPPRSAWGSATREEGFDRSTSLESSDCESLDSSNSGFGPEEDTAYLDGVSLPDFELLSDPEDEHLCANLMQLLQESLAQARLGSRRPARLLMPSQLVSQVGKELLRLAYSEPCGLRGALLDVCVEQGKSCHSVGQLALDPSLVPTFQLTLVLRLDSRLWPKIQGLFSS
notes: also called hRTP801 N-C2 fragment; hRTP801 N-C2 mutant; not shown: FLAG tag
- binding result [3]: binds

The remaining lines, values ahead:

- binding result (TSC2 [2]): no binding
B2: 6× His hRTP801 N-fragment (other)
chain: MPSLWDRFSSSSTSSSPSSLPRTPTPDRPPRSAWGSATREEGFDRSTSLESSDCESLDSSNSGFGPEEDTAYLDGVSLPDFELLSDPE
notes: not shown: 6× His tag

- binding result (HA-tagged TSC2 (HA-TSC2)): binds
- binding result (TSC2 [1]): binds
- binding result [4]: binds
B4: FLAG-hRTP801 (other)
chain: T2 sequence
notes: Full length hRTP801 with FLAG tag, expressed in transfected 293T cells; also called FLAG-full length hRTP801; FLAG-tagged hRTP801; not shown: FLAG tag
